# According to the supplement of paper PMC9170038:
# Legend:
# MS2 coat protein [1] = experiment: apparent KD of MS2 coat protein, switch OFF state (with FMN for OFF switches, without FMN for ON switches); designed switch direction (-1 OFF switch, 1 ON switch): -1; higher = weaker reporter binding; conditions: FMN input: 0 or 200 uM; Eterna round: R93 (includes R88 designs)
# How it was run: (§1)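 Normalised binding curves from single clusters were fitted, and the median fit for each design is given as apparent KD. The clusters held designed RNA switches transcribed on-chip from Illumina sequencing clusters. These were titrated with SNAP-549-labelled MS2 coat protein (twofold steps from 0.7 or 1.5 nM to 3 µM, 0.8–1.5 h to 10–20 min per step) in 100 mM Tris-HCl pH 7.5, 80 mM KCl, 4 mM MgCl2, without or with constant ligand.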
# MS2 coat protein [2] = experiment: apparent KD of MS2 coat protein, switch ON state; designed switch direction (-1 OFF switch, 1 ON switch): -1; higher = weaker reporter binding; conditions: FMN input: 0 or 200 uM; Eterna round: R93 (includes R88 designs)
# How it was run: as §1
Sequence,apparent KD of MS2 coat protein (MS2 coat protein [1]),apparent KD of MS2 coat protein (MS2 coat protein [2])
GGAGUGCAAGGAUAUACAUGAGGAUCACCCAUGUGAGAGAAAAAAGUGAGAAAGAAAAGUAGAAGGUGCGUUCG [salish99-ex3-131],44.8 nM,29.2 nM
CAAAGGUGAGGAUAUACAUAACUAUGACGAAAGUCAUAAAAACAUGAGGAUCACCCAUGUAGAAGGCACCACAA [E2 64% 1],31.3 nM,38.1 nM
AAGAAACAUGAGGAUCACCCAUGUCAGGAUAUCGAAAAGAAAAGAAAAGAAAGAAGAACGAGAAGGGACAAAGG [Qakare Ibi],67.8 nM,59.6 nM
UCCUCACAUGAGGAUCACCCAUGUGAGGAUAUGUACAUCAGGAAAAAAAAACUGAUGUACAGAAGGCACAUGGG [Design 8: Super Stable G-C],15.2 nM,30.8 nM
AGAAACCUAGGAUAUACAUGAGGAUCACCCAUGUAAAGAAAGAGGAGAGCCACAAGAAGUAGAAGGAGGAAGAA [JR_Exc003_Sub006],34.9 nM,22.7 nM
CAGUACUGAGGAUAUACAUGAGGAUCACCCAUGUAUCCAAGCUAGGAAACUAGCAAAUGUAGAAGGCAGUACUG [Ex3: 821],319 nM,37.5 nM
UAAAGACAUGAGGAUCACCCAUGUGAGGAUAUCGGAGGUGACGGAACAUCGAGUUCGGCGAGAAGGCGCAGGAA [JR_Exc001_Sub408],49 nM,69.6 nM
AGAAAGUCAGGAUAUGCAGACAAAGCAAAAAAGCAAUGUCUGCAGAAGGGACAUGAGGAUCACCCAUGUAAAGA [Mat - Exclusion 4 - Mayanna - D117],47.5 nM,50.3 nM
AAAAAGCGAGGAUAUACAUGAGGAUCACCCAUGUGAAAAAAAAAAUAAUAAAUAAAAGGUAGAAGGCGCAAAAA [V1],87.9 nM,72 nM
AUAGUACAUGAGGAUCACCCAUGUCAGGAUAUCGGAUAUGACAUGAAAAAAAUGUUAACGAGAAGGGACUAUAA [EX1 Malc#18],49.8 nM,44.3 nM
AAGAAGCAAGGAUAUACAAAAUAAAAGAAAAGAAAGAAAGAACAUGAGGAUCACCCAUGUAGAAGGUGCAAGAA [Djedkheperew],31 nM,31.1 nM
AAGUAGGUAGGAUAUGCAUAGAUAUAUAUUCAUGUGGAACUACAUGAGGAUCACCCAUGUAGAAGGACCUAAUA [AJ 42],17.1 nM,18.1 nM
AAAAAUCUAGGAUAUACAUGAGGAUCACCCAUGUAAGAAAAUGAUUACACAAAAGAAAGUAGAAGGAGAUAAAA [Ex 3 May 19],18.4 nM,17.4 nM
AAGAAGGGAGGAUAUACAAAAUAAAAGAAAAGAAAGAAAGAACAUGAGGAUCACCCAUGUAGAAGGCCCAAGAA [Iufni],21.2 nM,22.3 nM
AGGGAGUGAGGAUAUCCGAAAAAAAAACAACGAAAAAAAGAGGAGAAGGCACAUGAGGAUCACCCAUGUAAGAA [milkweed 15],28.6 nM,40.7 nM
AUAAUGUGAGGAUAUACAUGAGGAUCACCCAUGUAAUUAAAUAGGAGAGACACAAUUCGUAGAAGGUACAUUUA [JR_Exc003_Sub508],27.7 nM,29.4 nM
AACAAGACAGGAUAUACAUGAGGAUCACCCAUGUGAGAAUUAAGUGGCGUAACACAAAGUAGAAGGGUCAUGGA [Ruby 4],56.2 nM,38 nM
AAGAAGGUAGGAUAUACUAGGGAAACUAAUGCAAAGAUAAAACAUGAGGAUCACCCAUGUAGAAGGGCCAGAAA [JR_Exc002_Sub017],65.5 nM,40.8 nM
AAAAUGUCAGGAUAUGUAGCAAAAAGUGAUCCAAAAAAGCUACAGAAGGGACAUGAGGAUCACCCAUGUAAAAA [Ex4: 932],406 nM,244 nM
AUAGGCCUAGGAUAUACAUGAGGAUCACCCAUGUAAAUAAAUCGAUCAUGAUAAACGUGUAGAAGGAGGAAUAA [JR_Exc003_Sub206],39.5 nM,28.8 nM
AACAUACAUGAGGAUCACCCAUGUCAGGAUAUGCCGGGUUAGAGCCAACUAAAAAAACGUAGAAGGGACAAAAA [Bilbo Confounded 6 - Jieux - Exclusion 1],55.7 nM,62.7 nM
AACGAGUCAGGAUAUGCUAUAAAUUAAUAAAUAAAAUUAUAGCAGAAGGGACAUGAGGAUCACCCAUGUAAAUA [JR_Exc004_Sub201],42.2 nM,45.7 nM
AUGUAGGUAGGAUAUACAUGGAUAUACAUUCAUGUGGACCUACAUGAGGAUCACCCAUGUAGAAGGACCUAAAA [Mat - Same state - Mayanna Mod - D128],39.4 nM,45 nM

Sequence,apparent KD of MS2 coat protein (MS2 coat protein [1]),apparent KD of MS2 coat protein (MS2 coat protein [2])
AAAAUGUCAGGAUAUGCGAAGGCGUCUGAUAGAAGAGGAUAGCAGAAGGGACAUGAGGAUCACCCAUGUGGAAA [Opal 25],124 nM,72.3 nM
AGAAAACAUGAGGAUCACCCAUGUGAGGAUAUCGAUGUCCAAGACCUGGUGCGGGACUCGAGAAGGCACUGGGA [salish99-ex1-92],44.8 nM,41.4 nM
AAAAAUUGAGGAUAUACGAACAUGUCAAAAGACGUGAAGGGACAUGAGGAUCACCCAUGUAGAAGGCGAAAAAA [JL Loop Breaker 2],19.7 nM,41.3 nM
AAAAAGCGAGGAUAUACAUGAGGAUCACCCAUGUCAAACGGUAAGACCGCAGGAAAAAGUAGAAGGCGCAAAAA [Exclusion3-02],96.8 nM,65.9 nM
AAAAAACAUGAGGAUCACCCAUGUGAGGAUAUCCAAAAGUUAAAUAAAAAGACGAAAAGGAGAAGGCGCAAAAA [Mat - Mod of Eli],39.4 nM,64.9 nM
"AGCUAGUCAGGAUAUACGAACAUGUCAUAAGACGUGAAGGGACAUGAGGAUCACCCAUGUAGAAGGGACUAGCA [74%, Web mod - With 1 more U's]",139 nM,36.7 nM
"AGGAAACAUGAGGAUCACCCAUGUGAGGAUAUGAACGAAAAUAAAUAAAAAUAAAAGUUCAGAAGGCAUAAAAA [66%, Wbt, 4]",35.6 nM,30 nM
AACAAGUGAGGAUAUGAAAAUACAACAAACAAACAACUACAUCAGAAGGCACAUGAGGAUCACCCAUGUAAAAC [JR_Exc004_Sub1204],20.7 nM,19 nM
AGUCAUACAGGAUAUACAUGAGGAUCACCCAUGUAAAUCCUAAAAAGGUGAUCCUCAUGUAGAAGGGUAUGACA [EX3 219: Super Stable 19],17.7 nM,21.8 nM
AAAAAGGGAGGAUAUGCAUAAAAAAAAAAAAAAAAAAAAAAACAUGAGGAUCACCCAUGUAGAAGGCCCAAAAA [Dora Explored - Jieux - Exclusion 2],36.3 nM,58 nM
AGUCGGCGAGGAUAUACAUGAGGAUCACCCAUGUGAGAGAUAAAAGUGAGUUAGACAAGUAGAAGGCGCUGACA [JL Lego Mod 9],480 nM,44.3 nM
GAAAAGUCAGGAUAUACAGAAAAAAAAACGAAAAAAAAUCUGUAGAAGGGACAUGAGGAUCACCCAUGUUAAAA [Mat - Exclusion 4 - Mayanna - D125],24 nM,46.9 nM
GAAAAGUGAGGAUAUUCGGAUAGGAAAACGAAAACCUAUCCGAAGAAGGCACAUGAGGAUCACCCAUGUGGGAA [Mat - Exaclusion 4 - Eli mod - D49],119 nM,80.3 nM
GGUUGGCGAGGAUAUACAUGAGGAUCACCCAUGUGAGAGAAAAAAGUGAGGAAGAAAAGUAGAAGGCGCUGACG [salish99-ex3-14],636 nM,32 nM
AUAAGUGCAGGAUAUACGAAAAGCUAGCGAAAGCUAGCGGGACAUGAGGAUCACCCAUGUAGAAGGGCACAAUA [Tetraloop hairpin BlockHead... 61% 6],50.3 nM,25 nM
CUCUUGUGAGGAUAUUGAAGAAAAGAAAAGAAAGAAAAGAACAAGAAGGCACAUGAGGAUCACCCAUGUAAGAA [EteRNA is fun!],36.5 nM,24.8 nM
AAAGGACGAGGAUAUACAUGAGGAUCACCCAUGUAAAGGGCAUAAAAAAAGAACUUAUGUAGAAGGCGUCCAAA [Mat - Exclusion 3 - Eli mod - D95],26.8 nM,35 nM
AAGAACGAAGGAUAUACAUGAAAGAAAGAAAAGAAAAGAAAACAUGAGGAUCACCCAUGUAGAAGGUCGUAGAA [EteRNA is fun!],28.8 nM,26.2 nM
AAGAAUGGAGGAUAUACAUGAGGAUCACCCAUGUAAAAGAAAGAAAGGGAAAAGAAAAGUAGAAGGCCAAAGAA [Hedjkheperre Harsiese],42.1 nM,46.6 nM
AAGAACUAAGGAUAUACAAGGAAGAAAGAAAAGAAAAGAAAACAUGAGGAUCACCCAUGUAGAAGGUAGUAGAA [EteRNA is fun!],24.7 nM,28.8 nM
AAAAAAAGAGGAUAUACGAACAUGUCAAAAGACGUGAAGGGACAUGAGGAUCACCCAUGUAGAAGGUUUAAAAA [JL Wide Open 29],15.5 nM,32.9 nM
AGAAAGUCAGGAUAUACGAAUAAGAAUAAAGACGAGAACGGACAUGAGGAUCACCCAUGUAGAAGGGACAAGAA [Diamond 16],21.8 nM,51.6 nM
